This passage reports osteoclast number (TRAP staining after 4 days) in primary murine osteoclast culture differentiated with M-CSF and RANKL; OMD results from publication PMC10511717.

This experiment addresses RANKL of the osteoclast differentiation medium (UniProt O35235).
UniProt O35235, sequence (O35235 whole entry): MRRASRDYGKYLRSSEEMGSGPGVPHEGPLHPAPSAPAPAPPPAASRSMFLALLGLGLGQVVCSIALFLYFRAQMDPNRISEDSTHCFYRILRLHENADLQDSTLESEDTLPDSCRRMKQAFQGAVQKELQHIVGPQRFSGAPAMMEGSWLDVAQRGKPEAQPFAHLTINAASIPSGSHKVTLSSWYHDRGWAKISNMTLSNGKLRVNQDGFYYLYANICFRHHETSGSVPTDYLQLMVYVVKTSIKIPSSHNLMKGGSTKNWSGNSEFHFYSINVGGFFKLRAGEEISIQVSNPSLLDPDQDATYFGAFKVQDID

B1: recombinant mouse OMD (natural protein)
chain: QYEAYRWDDDYDQEPNEDYDPEFQFHQNIEYGVPFYNNILGCAKECFCPTNFPTSMYCDNRKLKTIPIIPMHIQQLNLQFNDIEAVTANSFINATHLKEINLSHNKIKSQKIDYGVFAKLSNLQQLHLEHNNLEEFPFPLPKSLERLLLGYNEISILPTNAMDGLVNVTMLDLCYNHLSDSMLKEKTLSKMEKLMQLNLCNNRLESMPLGLPSSLMYLSLENNSISSIPDNYFDKLPKLHALRISHNKLEDIPYDIFNLSNLIELNVGHNKLKQAFYIPRNLEHLYLQNNEIESINVTMICPSPDPVHHHHLTYLRVDQNKLKEPISSYIFFCFPRIHSIYYGEQRSTNGETIQLKTQVFRSYQEEEEEDDHDSQDNTLEGQEVSDEHYNSHYYEMQEWQDTI
In turn, B1 returned an osteoclast number (TRAP staining after 4 days) in primary murine osteoclast culture differentiated with M-CSF and RANKL; OMD at 10 and 40 ng/mL preincubated with RANKL and M-CSF (% reduction of osteoclast number) of 50.
